Laboratory results taken from the Human Domainome abundance scans (Beltran et al. 2025).
± gives the uncertainty stated by the source.

B1: Lysine-specific demethylase 2B, residues 656 to 722; numbered along this chain, Q8NHM5 (parent)
chain: LPHTAVCLVCGEAGKEDTVEEEEGKFNLMLMECSICNEIIHPGCLKIKESEGVVNDELPNCWECPKC

Variants of: B1
Experiment: abundance fitness (aPCA) (normalised: wild type 0, dead -1); higher = more abundant; growth selection in yeast, the domain comes from the species named
Details: Homo sapiens

| Variant | abundance fitness |
| --- | --- |
| L28W | 0.039 ± 0.073 |
| L28K | 0.152 ± 0.14 |
| L28G | -0.076 ± 0.068 |
| L28D | -0.068 ± 0.17 |
| L28H | 0.118 ± 0.12 |
| G52H | -0.086 ± 0.12 |
| G52F | -0.028 ± 0.11 |
| G52V | 0.018 ± 0.095 |
| G52I | -0.525 ± 0.24 |
| G52L | -0.142 ± 0.066 |
| G52K | -0.164 ± 0.093 |
| I40V | 0.215 ± 0.074 |
| I40R | -0.2 ± 0.07 |
| I40H | 0.1 ± 0.2 |
| I40L | -0.154 ± 0.072 |
| I40K | -0.368 ± 0.12 |
| I40T | 0.126 ± 0.079 |
| I40A | 0.008 ± 0.064 |
| I40N | 0.171 ± 0.15 |
| I40Q | -0.192 ± 0.056 |
| I40E | -0.599 ± 0.086 |
| I40W | -0.473 ± 0.11 |
| C36M | -0.619 ± 0.21 |
| C36W | -1.38 ± 0.23 |

| Variant | abundance fitness |
| --- | --- |
| C36G | -0.794 ± 0.09 |
| C36T | -0.961 ± 0.26 |
| C36S | -0.994 ± 0.22 |
| C36N | -0.707 ± 0.24 |
| N27C | -0.706 ± 0.36 |
| N27M | 0.077 ± 0.13 |
| N27R | -0.036 ± 0.064 |
| N27L | -0.137 ± 0.077 |
| N27F | -0.22 ± 0.19 |
| N27Y | -0.179 ± 0.19 |
| N27Q | -0.206 ± 0.13 |
| D56T | 0.069 ± 0.083 |
| D56G | 0.079 ± 0.072 |
| D56I | -0.685 ± 0.46 |
| D56M | 0.123 ± 0.14 |
| D56P | 0.099 ± 0.1 |
| D56N | -0.017 ± 0.095 |
| D56H | 0.692 ± 0.48 |
| I47H | -0.242 ± 0.28 |
| I47E | 0.038 ± 0.11 |
| I47W | -0.09 ± 0.083 |
| I47K | -0.17 ± 0.13 |
| I47C | -0.168 ± 0.11 |
| I47T | 0.08 ± 0.11 |

| Variant | abundance fitness |
| --- | --- |
| I47G | 0.011 ± 0.087 |
| L1C | 0.414 ± 0.19 |
| L1Q | -0.468 ± 0.24 |
| L1G | -0.129 ± 0.13 |
| L1N | 1.01 ± 0.2 |
| L1M | 0.071 ± 0.082 |
| L1E | -0.245 ± 0.33 |
| L1F | 0.761 ± 0.073 |
| L1K | -0.363 ± 0.14 |
| E12R | -0.016 ± 0.06 |
| E12V | -0.303 ± 0.11 |
| E12C | -0.159 ± 0.13 |
| E12Q | 0.078 ± 0.1 |
| C44P | -0.722 ± 0.12 |
| C44V | -0.906 ± 0.15 |
| C44M | -0.735 ± 0.22 |
| C44N | -0.815 ± 0.46 |
| C44Y | -0.897 ± 0.44 |
| L45E | -0.547 ± 0.2 |
| L45G | -0.114 ± 0.081 |
| L45F | -0.286 ± 0.18 |
| L45Q | 0.069 ± 0.16 |
| L45M | 0.032 ± 0.12 |
| L45K | -0.402 ± 0.058 |

| Variant | abundance fitness |
| --- | --- |
| L45A | -0.224 ± 0.2 |
| E32K | 0.156 ± 0.11 |
| E32Q | -0.17 ± 0.15 |
| E32L | 0.005 ± 0.065 |
| K15D | -1.01 ± 0.29 |
| K15W | 0.017 ± 0.18 |
| K15Y | -0.583 ± 0.22 |
| K15G | -0.206 ± 0.1 |
| K15L | -0.154 ± 0.067 |
| L8M | 0.172 ± 0.29 |
| W62I | -1 ± 0.39 |
| W62H | -0.838 ± 0.31 |
| W62G | -0.789 ± 0.1 |
| W62T | -0.426 ± 0.15 |
| E57H | 0.001 ± 0.28 |
| E57C | 0.036 ± 0.14 |
| E57R | -0.055 ± 0.067 |
| E57Q | -0.118 ± 0.13 |
| E51C | 0.056 ± 0.16 |
| E51Y | -0.172 ± 0.15 |
| E51Q | -0.239 ± 0.18 |
| D17Y | -0.315 ± 0.13 |
| D17L | -0.369 ± 0.09 |
| D17A | -0.173 ± 0.092 |

| Variant | abundance fitness |
| --- | --- |
| D17K | -0.174 ± 0.16 |
| D17V | -0.088 ± 0.062 |
| D17N | -0.035 ± 0.31 |
| D17H | 0.099 ± 0.17 |
| D17S | -0.083 ± 0.081 |
| D17T | -0.194 ± 0.07 |
| V6D | -0.293 ± 0.49 |
| V6Q | -0.541 ± 0.3 |
| E63K | 0.146 ± 0.071 |
| E63L | -0.074 ± 0.078 |
| E63Q | -0.148 ± 0.14 |
| E63A | 0.017 ± 0.14 |
| V9E | -0.053 ± 0.15 |
| V9T | 0.127 ± 0.1 |
| V9F | -0.257 ± 0.24 |
| E49A | 0.104 ± 0.082 |
| E49I | -0.244 ± 0.19 |
| E49G | 0.008 ± 0.051 |
| E49T | 0.045 ± 0.07 |
| V53T | 0.078 ± 0.11 |
| V53K | -0.167 ± 0.14 |
| V53F | -0.343 ± 0.21 |
| V53C | -0.027 ± 0.16 |
| C64S | -0.797 ± 0.12 |

| Variant | abundance fitness |
| --- | --- |
| C64F | -0.719 ± 0.29 |
| C64E | -0.718 ± 0.12 |
| C64D | -0.85 ± 0.21 |
| C64V | -0.95 ± 0.16 |
| G24N | 0.123 ± 0.094 |
| G24W | -0.526 ± 0.082 |
| G24I | -0.049 ± 0.13 |
| G24F | 0.006 ± 0.055 |
| G24Y | 0.154 ± 0.15 |
| M31P | -0.847 ± 0.15 |
| M31T | -0.405 ± 0.16 |
| M31Y | -0.317 ± 0.18 |
| M31C | -0.219 ± 0.22 |
| M31V | -0.276 ± 0.12 |
| M31K | -0.093 ± 0.098 |
| M31I | -0.238 ± 0.11 |
| L30S | -0.452 ± 0.078 |
| L30C | -0.232 ± 0.12 |
| L30A | -0.35 ± 0.12 |
| L30W | -0.309 ± 0.093 |
| T4I | -0.288 ± 0.46 |
| T4W | -0.889 ± 0.23 |
| T4E | -0.448 ± 0.16 |
| T4Q | -0.729 ± 0.36 |

| Variant | abundance fitness |
| --- | --- |
| N37E | 0.02 ± 0.1 |
| N37D | -0.026 ± 0.16 |
| N37Y | 0.137 ± 0.12 |
| N37G | 0.092 ± 0.059 |
| N37F | -0.233 ± 0.2 |
| N37V | -1.3 ± 0.25 |
| N37M | -0.062 ± 0.097 |
| K46T | 0.211 ± 0.19 |
| P42L | -0.317 ± 0.079 |
| P42F | -0.272 ± 0.19 |
| P42E | -0.537 ± 0.093 |
| P42T | -0.568 ± 0.18 |
| P42V | -0.423 ± 0.13 |
| P42C | -0.355 ± 0.21 |
| C61Q | -0.08 ± 0.099 |
| C61H | 0.309 ± 0.27 |
| C61R | 0.042 ± 0.072 |
| C61N | -0.675 ± 0.33 |
| C67Y | -1.08 ± 0.29 |
| C67A | -0.676 ± 0.17 |
| C67T | -0.462 ± 0.27 |
| C67K | -0.667 ± 0.24 |
| C67G | -0.992 ± 0.18 |
